Data: US20220291238A1, “Methods for Predicting Treatment Response in Ulcerative Colitis” (Janssen Biotech, Inc., priority 2021, published 2022)

B1: IL22: human recombinant IL22 (10 ng/mL) on human colonoids; mouse recombinant IL22 on mouse colonoids (protein, UniProt Q9GZX6 34-179, looked up)
Interleukin-22: APISSHCRLDKSNFQQPYITNRTFMLAKEASLADNNTDVRLIGEKLFHGVSMSERCYLMKQVLNFTLEEVLFPQSDRFQPYMQEVVPFLARLSNRLSTCHIEGDDLHIQRNVQKLKDTVKKLGESGEIKAIGELDLLFMSLRNACI

Assays:
[1] = tested on: TRUC mice; assay: TRUC mouse chronic colitis model, in vivo treatments; conditions: TRUC Il22−/− mice
Procedure: In vivo treatments: Neutralizing anti-IL-22 mAb (clone IL22-01) and recombinant IL-22 (rIL-22) were developed and provided by Pfizer. […] of IL22-01 (per mouse) were administered i.p. every 3 to 4 days. […] of rIL-22 (per mouse) were administered i.p. at days 0, 4, 8 and 12, while mice were culled at day 14. Anti-CXCR2 (clone 242216, R&D Systems) was administered i.p. at a dose of […] per mouse at days 0, 3, 7, 10 and 14, while mice were culled at day 15.
Isolation of colonic LP leukocytes (cLPMCs): Mice were euthanized by either cervical dislocation or by a rising concentration of carbon dioxide gas, and then dissected in a laminar flow cabinet under aseptic conditions. Colons were opened longitudinally, cleaned thoroughly with ice-cold PBS and cut into 1-2 mm pieces and washed with 10 ml 5 mM EDTA, 1 mM Hepes in HBSS (Gibco; Gaithersburg, Md.) in a shaking water bath (300 rpm) at 37° C. for 20 min. Tissue was then vortexed vigorously for 10 seconds and passed through a […] cell strainer and collected in Ctubes (Miltenyi; Bergisch Gladbach, Germany) in complete RPMI (Gibco) containing 10% fetal calf serum, 0.25 mg/ml Collagenase D (Roche; Basel, Switzerland), 1.5 mg/ml Dispase II (Roche) and […] DNase (Roche) and put in a shaking water bath (300 rpm) at 37° C. for 40 minutes. Before and after the 40 minute incubation C-tubes were vigorously shaken for 30 seconds. Solutions were then passed through […] cell strainers and washed with ice-cold PBS. […] Cells were resuspended in 1 ml PBS, counted, and immediately used for further experiments.
Gene expression analysis: Whole tissue colonic fragments or sorted cells were lysed in 1 ml TRIsure (Bioline) and stored at −80° C. pending further processing. […] Concentration of RNA in each sample was measured using NanoDrop. […] Quantitative PCR was performed using QuantiTect primers (Qiagen) and Quantitect SybrGreen MasterMix (Qiagen) on a LightCycler 480 (Roche). Samples were analyzed in triplicates and relative expression of mRNAs was determined after normalization against the housekeeping gene Beta-2-Microglobulin (B2M). […]

[2] = tested on: mouse colonic organoids; assay: IL22 treatment of mouse colonic organoids, chemokine expression; type: cell-based
Procedure: Mouse colonoids were cultured in the same medium as above but without gastrin SB202190, Nicotinamide, A83-01 and with the addition of 3 μM CHIR99021 (Cambridge Biosciences; Cambridge, United Kingdom). To differentiate them, Wnt3a was withdrawn for 3 days. During the last 24 hours in differentiation medium, mouse colonoids were treated with mouse recombinant IL22 (10 ng/mL) and IL17A (50 ng/mL).
Next, whether IL22 mediated regulation of neutrophil-active chemokine expression was functionally important in colitis was investigated. First, it was evaluated whether IL22 mediated regulation of human colonic epithelial function was conserved across species. […] In the CC family of chemokines, induction of Ccl7 and weaker induction of Ccl2 by IL22, with little or no impact on other CC family members, was observed. These findings were validated using real time PCR, which confirmed time and dose dependent induction of CXC-family chemokine transcripts. As observed in human colonoids, IL22 induced expression of Cxcl1 and Cxcl5, and was synergistically augmented by IL17A. These observations were confirmed at the protein level by measuring chemokine production in supernatants of murine colonic organoids cultured with recombinant mouse cytokines.

[3] = tested on: human colonoids; assay: Cytokine treatment of human colonoids, RNA-seq; type: cell-based
Procedure: All patients provided informed consent (NRES/IRAS id:15/LO/1998). Subsequent establishment of human colonoids was performed as previously described by Sato et al (48). The crypts were cultured in growth medium containing advanced Dulbecco's modified Eagle's medium/F12, penicillin/streptomycin (100 units/mL), 10 mM HEPES, 2 mM Glutamax, supplements N2 (1×) and B27 (1×), 50 ng/mL mouse epidermal growth factor (all from Life Technologies; Carlsbad, Calif.), 1 mM N-acetylcysteine (Sigma-Aldrich; St. Louis, Mo.), 50% v/v Wnt3a conditioned medium, 10% v/v R-spondin-1 conditioned medium, 100 ng/mL murine recombinant noggin protein (Peprotech; Rocky Hill, N.J.), 10 nM gastrin (Sigma-Aldrich), 500 nM A83-01 (Bio-techne; Minneapolis, Minn.), 10 μM SB202190 (Sigma-Aldrich) and 10 mM Nicotinamide (Sigma-Aldrich). 10 μM Y-27632 (Sigma-Aldrich) was added to the culture medium for the initial 3 days. Medium was changed every 2 days. […] During the last 24 hours in differentiation medium, human colonoids were treated with human recombinant IL22 (10 ng/mL), IL17A (50 ng/mL), TNFα (10 ng/mL), IFNγ (20 ng/mL), IL13 (10 ng/mL) and IL22 (10 ng/mL)/IL17A (50 ng/mL) combination.
RNA extraction: Colonoids and LPMC were treated in a similar fashion. Cells were lysed and RNA was extracted using the RNAeasy kit (Qiagen; Hilden, Germany). This step was optimized balancing the effectiveness of elimination of DNA quantified (Qubit dsDNA HS assay kit) versus the loss of quantity of RNA (Qubit RNA BR assay kit). Optimal DNAse I concentration was determined to be ×5 the standard concentration. 500 ng of cDNA was then created using Revertaid cDNA synthesis kit (ThermoFisher) and diluted to a concentration of 6.25 ng/μl. Harvested colonoids were put in Qiazol and then RNA was extracted with the RNAeasy kit (Qiagen) as per manufacturer's guidelines. cDNA was created using the Revertaid cDNA synthesis kit (ThermoFisher).
Library preparation and sequencing: A total amount of 3 μg RNA per sample was used as input material for the RNA sample preparations. Sequencing libraries were generated using NEBNextR Ultra™ RNA Library Prep Kit for IlluminaR (NEB, Ipswich, Mass.) following manufacturer's recommendations and index codes were added to attribute sequences to each sample. Briefly, mRNA was purified from total RNA using poly-T oligo-attached magnetic beads. Fragmentation was carried out using divalent cations under elevated temperature in NEBNext First Strand Synthesis Reaction Buffer (5×). First strand cDNA was synthesized using random hexamer primer and M-MuLV Reverse Transcriptase (RNase H-). Second strand cDNA synthesis was subsequently performed using DNA Polymerase I and RNase H. Remaining overhangs were converted into blunt ends via exonuclease/polymerase activities. After adenylation of 3′ ends of DNA fragments, NEBNext Adaptor with hairpin loop structure were ligated to prepare for hybridization. In order to select cDNA fragments of preferentially 150˜200 bp in length, the library fragments were purified with AMPure XP system (Beckman Coulter, Brea, Calif.). Then 3 μl USER Enzyme (NEB) was used with size-selected, adaptor-ligated cDNA at 37° C. for 15 minutes followed by 5 minutes at 95° C. before PCR. Then PCR was performed with Phusion High-Fidelity DNA polymerase, Universal PCR primers and Index (X) Primer. At last, PCR products were purified (AMPure XP system) and library quality was assessed on the Agilent Bioanalyzer 2100 system. The clustering of the index-coded samples was performed on a cBot Cluster Generation System using HiSeq PE Cluster Kit cBot-HS (Illumina; San Diego, Calif.) according to the manufacturer's instructions. After cluster generation, the paired-end libraries were sequenced on an Illumina HiSeq platform. […]

Row | Molecule | Cxcl1 and Cxcl5 expression in the colon [1] | disease activity (colitis) [1] | neutrophil recruitment in the colon [1] | regulation of chemokine expression [2] | downregulated transcripts ([3]; FDR<0.01) | upregulated transcripts ([3]; FDR<0.01) | differentially expressed transcripts ([3]; IL22 10 ng/mL, 24 hours, FDR<0.01) | regulation of chemokine expression ([3]; human colonoids, 24 hours) | transcripts uniquely regulated by IL22 ([3]; of the 1251 IL22-regulated transcripts)
1 | rIL22: recombinant IL-22 developed and provided by Pfizer, given i.p. to mice | reinstated | restored colitis | restored excessive neutrophil recruitment |  |  |  |  |  | 
2 | B1 |  |  |  | selectively induced expression of the neutrophil-active chemokines Cxcl1, Cxcl3 and Cxcl5 | 672 | 579 | 1251 transcripts | preferentially upregulated the neutrophil-active CXC family chemokines CXCL1, CXCL2, CXCL3, CXCL4, CXCL5, CXCL6 and CXCL8 | 322
